Measured values from patent US20220220215A1.

Biological target: human CD137 expressed on cells (Jurkat human CD137 NF-kB luciferase reporter cells; human CD8+ T cells) (human) (UniProt Q07011)
Test: cell-based or functional assay

CD8+ T-cell activation assay - IL-2 release, EC50: 0.397 nM
Substance: Urelumab analog (antibody)
